SpyTag functionalities per GV data for one molecule are collected here from US20180028693A1.

The test addresses GvpA of Anabaena flos-aquae gas vesicles (GvpA-based shell of urea-stripped Ana GVs) (Anabaena flos-aquae) (UniProt P10397). The test can be described thus: SDS-PAGE of ST-Ana GVs against a standard curve of GvpC-ST.
Sequence of UniProt P10397 (P10397 2-71): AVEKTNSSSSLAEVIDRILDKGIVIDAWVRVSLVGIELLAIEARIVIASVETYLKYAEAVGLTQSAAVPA

B1: GvpC-SpyTag (GvpC comprising a SpyTag fused to the C-terminus, and a His-tag fused to the C-terminus of the SpyTag) (protein)
chain: MGISLMAKIRQEHQSIAEKVAELSLETREFLSVTTAKRQEQAEKQAQELQAFYKDLQETSQQFLSETAQARIAQAEKQAQELLAFHKELQETSQQFLSATAQARIAQAEKQAQELLAFYQEVRETSQQFLSATAQARIAQAEKQAQELLAFHKELQETSQQFLSATADARTAQAKEQKESLLKFRQDLFVSIFGSGAHIVMVDAYKPTKGSGLEHHHHHH
Molecule B1 yielded a SpyTag functionalities per GV of 1000 per GV.
